Measurements from the PETadex activity labels (doi:10.1074/jbc.m303867200).

Tests used:
Details in all cases: pH 8; 37 °C
p-NP-C12 = substrate: p-NP-C12
p-NP-C2 = substrate: p-NP-C2
p-NP-C3 = substrate: p-NP-C3
p-NP-C4 = substrate: p-NP-C4
p-NP-C6 = substrate: p-NP-C6

B1: unnamed (protein)
chain: MNNIWWQTKGQGNVHLVLLHGWGLNAEVWRCIDEELSSHFTLHLVDLPGFGRSRGFGALSLADMAEAVLQQAPDKAIWLGWSLGGLVASQIALTHPERVQALVTVASSPCFSARDEWPGIKPDVLAGFQQQLSDDFQRTVERFLALQTMGTETARQDARALKKTVLALPMPEVDVLNGGLEILKTVDLRQPLQNVSMPFLRLYGYLDGLVPRKVVPMLDKLWPHSESYIFAKAAHAPFISHPAEFCHLLVALKQRV
B1 showed a Km (p-NP-C12) of 600 µM, a kcat (p-NP-C12) of 1.5 s⁻¹ and a kcat/Km (p-NP-C12) of 2500 M⁻¹ s⁻¹. The Km (p-NP-C2) was 290 µM, the kcat (p-NP-C2) was 18.5 s⁻¹ and the kcat/Km (p-NP-C2) was 63800 M⁻¹ s⁻¹. It also gave a Km (p-NP-C3) of 350 µM, a kcat (p-NP-C3) of 13.1 s⁻¹ and a kcat/Km (p-NP-C3) of 37400 M⁻¹ s⁻¹. The Km (p-NP-C4) was 330 µM, the kcat (p-NP-C4) was 6.1 s⁻¹ and the kcat/Km (p-NP-C4) was 18500 M⁻¹ s⁻¹. The Km (p-NP-C6) was 250 µM, the kcat (p-NP-C6) was 4 s⁻¹ and the kcat/Km (p-NP-C6) was 16000 M⁻¹ s⁻¹.
